Results reported in patent US20140274782A1, “AFFINITY REAGENTS AND METHODS FOR DETECTION, PURIFICATION, AND PROTEOMIC ANALYSIS OF METHYLATED PROTEINS” (The Board of Trustees of the Leland Stanford Junior …, priority 2013, published 2014).

T1: G9a and GLP (Homo sapiens, UniProt Q96KQ7+Q9H9B1)
T1 sequence (Q96KQ7 2-1210 limits assumed): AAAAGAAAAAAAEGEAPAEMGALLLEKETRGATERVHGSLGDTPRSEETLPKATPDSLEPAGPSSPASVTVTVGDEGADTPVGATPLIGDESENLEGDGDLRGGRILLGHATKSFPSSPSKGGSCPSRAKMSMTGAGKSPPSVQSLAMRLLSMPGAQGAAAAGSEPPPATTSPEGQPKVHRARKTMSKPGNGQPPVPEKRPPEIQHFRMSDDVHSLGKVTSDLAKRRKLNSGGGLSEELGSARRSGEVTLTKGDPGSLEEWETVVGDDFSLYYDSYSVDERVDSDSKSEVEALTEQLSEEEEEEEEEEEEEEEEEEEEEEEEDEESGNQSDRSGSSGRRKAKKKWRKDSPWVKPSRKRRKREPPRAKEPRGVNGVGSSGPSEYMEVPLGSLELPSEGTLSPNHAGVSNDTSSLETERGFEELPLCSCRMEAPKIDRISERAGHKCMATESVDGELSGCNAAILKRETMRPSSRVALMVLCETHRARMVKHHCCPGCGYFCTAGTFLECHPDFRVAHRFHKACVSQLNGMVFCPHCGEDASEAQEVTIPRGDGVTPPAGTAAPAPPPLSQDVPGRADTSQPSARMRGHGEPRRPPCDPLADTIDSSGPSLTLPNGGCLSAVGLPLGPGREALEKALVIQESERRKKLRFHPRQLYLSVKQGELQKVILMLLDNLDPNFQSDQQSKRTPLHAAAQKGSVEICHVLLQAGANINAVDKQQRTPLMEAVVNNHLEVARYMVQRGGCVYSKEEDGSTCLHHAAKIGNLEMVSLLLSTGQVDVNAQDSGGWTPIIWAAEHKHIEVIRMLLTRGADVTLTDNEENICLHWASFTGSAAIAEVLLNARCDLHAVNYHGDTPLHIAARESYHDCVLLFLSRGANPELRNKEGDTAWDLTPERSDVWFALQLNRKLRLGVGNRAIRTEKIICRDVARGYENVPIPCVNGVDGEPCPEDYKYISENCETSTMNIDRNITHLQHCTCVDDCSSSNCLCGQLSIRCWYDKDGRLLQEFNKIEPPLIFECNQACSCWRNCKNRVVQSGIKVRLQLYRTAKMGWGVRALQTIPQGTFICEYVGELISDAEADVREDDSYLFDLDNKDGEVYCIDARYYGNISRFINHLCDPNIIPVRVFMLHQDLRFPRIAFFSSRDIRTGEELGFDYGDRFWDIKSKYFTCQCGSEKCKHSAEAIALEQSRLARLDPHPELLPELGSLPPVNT
T1 sequence (Q9H9B1 2-1298 limits assumed): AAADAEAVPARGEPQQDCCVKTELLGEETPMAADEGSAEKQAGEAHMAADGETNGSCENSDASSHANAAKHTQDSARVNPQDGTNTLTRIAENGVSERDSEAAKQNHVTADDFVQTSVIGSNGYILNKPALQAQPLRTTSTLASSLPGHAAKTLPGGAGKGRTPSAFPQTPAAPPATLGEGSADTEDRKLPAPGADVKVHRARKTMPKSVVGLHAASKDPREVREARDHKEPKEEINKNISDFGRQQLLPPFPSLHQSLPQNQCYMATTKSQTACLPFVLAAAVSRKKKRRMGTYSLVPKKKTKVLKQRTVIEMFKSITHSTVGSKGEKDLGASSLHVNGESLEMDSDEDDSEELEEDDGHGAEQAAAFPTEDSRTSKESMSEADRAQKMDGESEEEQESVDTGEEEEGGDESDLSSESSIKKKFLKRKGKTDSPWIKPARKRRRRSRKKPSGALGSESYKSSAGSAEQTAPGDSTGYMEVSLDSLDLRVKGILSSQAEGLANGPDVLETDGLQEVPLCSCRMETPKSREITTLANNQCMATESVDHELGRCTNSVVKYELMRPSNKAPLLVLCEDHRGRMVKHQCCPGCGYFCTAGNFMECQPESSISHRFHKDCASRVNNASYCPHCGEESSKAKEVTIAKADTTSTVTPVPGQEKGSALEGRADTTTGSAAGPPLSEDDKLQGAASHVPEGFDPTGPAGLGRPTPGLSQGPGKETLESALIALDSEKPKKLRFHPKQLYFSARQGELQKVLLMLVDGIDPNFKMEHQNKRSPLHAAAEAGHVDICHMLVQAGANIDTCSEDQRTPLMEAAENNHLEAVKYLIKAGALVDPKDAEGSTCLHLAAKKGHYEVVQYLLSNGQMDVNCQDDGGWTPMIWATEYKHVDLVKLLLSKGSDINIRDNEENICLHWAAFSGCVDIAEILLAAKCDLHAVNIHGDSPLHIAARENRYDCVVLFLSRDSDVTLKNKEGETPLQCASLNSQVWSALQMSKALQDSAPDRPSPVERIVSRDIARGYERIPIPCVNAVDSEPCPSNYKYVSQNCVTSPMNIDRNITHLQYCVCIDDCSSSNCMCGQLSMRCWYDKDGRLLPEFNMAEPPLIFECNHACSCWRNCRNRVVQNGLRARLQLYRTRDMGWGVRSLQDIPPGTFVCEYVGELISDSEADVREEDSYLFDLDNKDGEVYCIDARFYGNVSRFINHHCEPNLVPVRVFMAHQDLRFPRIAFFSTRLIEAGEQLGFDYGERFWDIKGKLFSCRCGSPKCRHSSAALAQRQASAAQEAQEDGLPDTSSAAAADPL

B1: UBTF (protein, UniProt P17480 1-764, looked up)
Nucleolar transcription …: MNGEADCPTDLEMAAPKGQDRWSQEDMLTLLECMKNNLPSNDSSKFKTTESHMDWEKVAFKDFSGDMCKLKWVEISNEVRKFRTLTELILDAQEHVKNPYKGKKLKKHPDFPKKPLTPYFRFFMEKRAKYAKLHPEMSNLDLTKILSKKYKELPEKKKMKYIQDFQREKQEFERNLARFREDHPDLIQNAKKSDIPEKPKTPQQLWYTHEKKVYLKVRPDATTKEVKDSLGKQWSQLSDKKRLKWIHKALEQRKEYEEIMRDYIQKHPELNISEEGITKSTLTKAERQLKDKFDGRPTKPPPNSYSLYCAELMANMKDVPSTERMVLCSQQWKLLSQKEKDAYHKKCDQKKKDYEVELLRFLESLPEEEQQRVLGEEKMLNINKKQATSPASKKPAQEGGKGGSEKPKRPVSAMFIFSEEKRRQLQEERPELSESELTRLLARMWNDLSEKKKAKYKAREAALKAQSERKPGGEREERGKLPESPKRAEEIWQQSVIGDYLARFKNDRVKALKAMEMTWNNMEKKEKLMWIKKAAEDQKRYERELSEMRAPPAATNSSKKMKFQGEPKKPPMNGYQKFSQELLSNGELNHLPLKERMVEIGSRWQRISQSQKEHYKKLAEEQQKQYKVHLDLWVKSLSPQDRAAYKEYISNKRKSMTKLRGPNPKSSRTTLQSKSESEEDDEEDEDDEDEDEEEEDDENGDSSEDGGDSSESSSEDESEDGDENEEDDEDEDDDEDDDEDEDNESEGSSSSSSSSGDSSDSDSN
B2: HPRT1 (protein, UniProt P00492 2-218, looked up)
Hypoxanthine-guanine …: ATRSPGVVISDDEPGYDLDLFCIPNHYAEDLERVFIPHGLIMDRTERLARDVMKEMGGHHIVALCVLKGGYKFFADLLDYIKALNRNSDRSIPMTVDFIRLKSYCNDQSTGDIKVIGGDDLSTLTGKNVLIVEDIIDTGKTMQTLLSLVRQYNPKMVKVASLLVKRTPRSVGYKPDFVGFEIPDKFVVGYALDYNEYFRDLNHVCVISETGKAKYKA
B3: PRDX1 (protein, UniProt Q06830 2-199, looked up)
Peroxiredoxin-1: SSGNAKIGHPAPNFKATAVMPDGQFKDISLSDYKGKYVVFFFYPLDFTFVCPTEIIAFSDRAEEFKKLNCQVIGASVDSHFCHLAWVNTPKKQGGLGPMNIPLVSDPKRTIAQDYGVLKADEGISFRGLFIIDDKGILRQITVNDLPVGRSVDETLRLVQAFQFTDKHGEVCPAGWKPGSDTIKPDVQKSKEYFSKQK
B4: DEK (protein, UniProt P35659 2-375, looked up)
Protein DEK: SASAPAAEGEGTPTQPASEKEPEMPGPREESEEEEDEDDEEEEEEEKEKSLIVEGKREKKKVERLTMQVSSLQREPFTIAQGKGQKLCEIERIHFFLSKKKTDELRNLHKLLYNRPGTVSSLKKNVGQFSGFPFEKGSVQYKKKEEMLKKFRNAMLKSICEVLDLERSGVNSELVKRILNFLMHPKPSGKPLPKSKKTCSKGSKKERNSSGMARKAKRTKCPEILSDESSSDEDEKKNKEESSDDEDKESEEEPPKKTAKREKPKQKATSKSKKSVKSANVKKADSSTTKKNQNSSKKESESEDSSDDEPLIKKLKKPPTDEELKETIKKLLASANLEEVTMKQICKKVYENYPTYDLTERKDFIKTTVKELIS
B5: HNRNPM (protein, UniProt P52272 2-730, looked up)
Heterogeneous nuclear …: AAGVEAAAEVAATEIKMEEESGAPGVPSGNGAPGPKGEGERPAQNEKRKEKNIKRGGNRFEPYANPTKRYRAFITNIPFDVKWQSLKDLVKEKVGEVTYVELLMDAEGKSRGCAVVEFKMEESMKKAAEVLNKHSLSGRPLKVKEDPDGEHARRAMQKVMATTGGMGMGPGGPGMITIPPSILNNPNIPNEIIHALQAGRLGSTVFVANLDYKVGWKKLKEVFSMAGVVVRADILEDKDGKSRGIGTVTFEQSIEAVQAISMFNGQLLFDRPMHVKMDERALPKGDFFPPERPQQLPHGLGGIGMGLGPGGQPIDANHLNKGIGMGNIGPAGMGMEGIGFGINKMGGMEGPFGGGMENMGRFGSGMNMGRINEILSNALKRGEIIAKQGGGGGGGSVPGIERMGPGIDRLGGAGMERMGAGLGHGMDRVGSEIERMGLVMDRMGSVERMGSGIERMGPLGLDHMASSIERMGQTMERIGSGVERMGAGMGFGLERMAAPIDRVGQTIERMGSGVERMGPAIERMGLSMERMVPAGMGAGLERMGPVMDRMATGLERMGANNLERMGLERMGANSLERMGLERMGANSLERMGPAMGPALGAGIERMGLAMGGGGGASFDRAIEMERGNFGGSFAGSFGGAGGHAPGVARKACQIFVRNLPFDFTWKMLKDKFNECGHVLYADIKMENGKSKGCGVVKFESPEVAERACRMMNGMKLSGREIDVRIDRNA

target: T1, G9a and GLP; assay: Triple SILAC pull-down after UNC0638 treatment of 293T cells, DMSO/UNC0638 ratio of protein captured by 3×MBT; type: cell-based; parameters: endogenous in cells; host or cells: HEK 293T; conditions: SILAC ratio DMSO relative to UNC0638, pull-down with 3xMBT; UNC0638 in heavy SILAC media; all values in log base 2;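 also: mass spectrometry (Q-Exactive) SILAC quantitation, DMSO/UNC0638 ratio computed after subtracting 3×MBTD355N mutant pull-down background, only proteins with at least twofold 3×MBT over mutant signal considered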

Molecule | Relative to UNC0638 UNC Heavy [log base 2]
B1 | 0.49
B2 | 0.28
B3 | 0.17
B4 | 0.10
B5 | 0.01

same assay, conditions: SILAC ratio DMSO relative to UNC0638, pull-down with 3xMBT; UNC0638 in light SILAC media; all values in log base 2

Molecule | Relative to UNC0638 UNC Light [log base 2]
B1 | −0.29
B2 | −0.08
B3 | 0.04
B4 | 0.10
B5 | 0.19

same assay, conditions: average of UNC Light and UNC Heavy experiments; all values in log base 2

Molecule | Relative to UNC0638 Average [log base 2]
B1 | 0.10
B2 | 0.10
B3 | 0.10
B4 | 0.10
B5 | 0.10

test system: 3×MBT domain of L3MBTL1; assay: Triple SILAC pull-down, 3xMBT/3xMBTD355N ratio (cytoplasmic, nuclear and chromatin fractions of 293T cells); type: binding, human; conditions: SILAC ratio 3xMBT vs 3xMBTD355N pull-down, 293T cells; experiment with UNC0638 in heavy SILAC media; all values in log base 2;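 also: proteins quantified with MaxQuant, requiring at least two unique peptides and quantification in both label directions, normalized to the mean of proteins from a digested loading control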

Molecule | 3xMBT/D355N UNC Heavy [log base 2]
B1 | 2.47
B2 | 2.51
B3 | 1.65
B4 | 2.38
B5 | 3.18

same assay, conditions: SILAC ratio 3xMBT vs 3xMBTD355N pull-down, 293T cells; experiment with UNC0638 in light SILAC media; all values in log base 2

Molecule | 3xMBT/D355N UNC Light [log base 2]
B1 | 1.93
B2 | 1.19
B3 | 1.98
B4 | 2.01
B5 | 2.44
